In experiment [1] the target is fluorescein-labelled hypusine-containing human eIF5A^C22A,C38A,C73A,C129A,T142C (human) (UniProt P63241). Briefly: fluorescence polarisation; ribosomal complex titrated into 5-10 nM eIF5A-fl; 20 mM Hepes pH 7.5, 100 mM KOAc, 2.5 mM Mg(OAc)2, 1 mM DTT, 15 μM BSA; 30°C 30 min.
The target in experiment [2] is human 60S ribosomal subunit (human (endogenous in HeLa)). Briefly: fluorescence polarisation; competition: non-labeled eIF5A titrated (from 5 μM) into preformed ribosome-eIF5A-fl, ribosome 50 nM; same buffer, 30°C 30 min; apparent Ki. Background: Polarisation of emitted light reports the rotation of a fluorescent probe.
For experiment [3], the target named is human reconstituted 80S ribosome (40S+60S) (human (endogenous in HeLa)). The description is as above.
Experiment [4] has as its target human reconstituted 80S ribosome with Met-tRNAi^Met (40S+60S+Met-tRNAi^Met) (human (endogenous in HeLa)). Described as above.
The target of experiment [5] is yeast pre-assembled 80S ribosome (yeast) (UniProt P26321). The experiment is described as above.
The target in experiment [6] is human ribosomes (complex not specified) (human (endogenous in HeLa)). The experiment in a line: fluorescence polarisation; yeast eIF5A with human ribosomes by anisotropy change; data not shown.
Experiment [7] concerns the target fluorescein-labelled hypusine-containing human eIF5A^C22A,C38A,C73A,C129A,T142C (human) (UniProt P63241). The experiment in a line: fluorescence polarisation; yeast 80S titrated into eIF5A-fl in the presence of saturating eEF2 (1 μM); same buffer, 30°C.
The target of experiment [8] is yeast pre-assembled 80S ribosome (yeast) (UniProt P26321). Briefly: fluorescence polarisation; competition: non-labeled yeast eIF5A titrated into preformed 80S-eIF5A-fl in the presence of saturating eEF2.

In experiment [1], human 40S ribosomal subunit (complex) showed a Kd above 1700 nM.

human 60S ribosomal subunit (complex) gave a Kd in experiment [1] of 128 nM.

For “human reconstituted 80S ribosome (40S+60S) (complex)”, the Kd in experiment [1] was determined as 13 nM.

“human reconstituted 80S ribosome with Met-tRNAi^Met (40S+60S+Met-tRNAi^Met) (complex)” gave a dissociation constant (Kd) in experiment [1] of 7 nM. This Kd is about 1.9-fold lower than that of the molecule before.

As to “non-hypusine-containing human eIF5A^T142C (lysine-containing) (from UniProt P63241 1-154) (natural protein)”, the Ki in experiment [2] worked out at 385 nM.

Turning to “non-labeled hypusine-containing human eIF5A (from UniProt P63241 1-154) (natural protein)”, the Ki in experiment [3] is 12 nM; in experiment [4] it was below 5 nM; in experiment [5], below 5 nM; in experiment [2] it was 16 nM.

Consider “yeast eIF5A tested on human ribosomes (data not shown) (from UniProt P23301 1-157) (natural protein)”, for which the affinity (constant not named) in experiment [6] was above 2000 nM.

In experiment [1], “yeast pre-assembled 80S ribosome (from UniProt P26321 1-297) (complex)” showed a Kd of 10 nM. For the same molecule, the Kd in the presence of saturating eEF2 in experiment [7] came out at 41 nM.

B1: yeast eIF5A^C39A (natural protein)
chain: MSDEEHTFETADAGSSATYPMQCSALRKNGFVVIKSRPAKIVDMSTSKTGKHGHAKVHLVAIDIFTGKKLEDLSPSTHNMEVPVVKRNEYQLLDIDDGFLSLMNMDGDTKDDVKAPEGELGDSLQTAFDEGKDLMVTIISAMGEEAAISFKEAARTD
modifications: hypusine (co-expressed with the modifying enzymes; position not given)
Regarding B1, in experiment [8], the Ki in the presence of saturating eEF2 worked out at 51 nM. The Ki in experiment [5] came to 9 nM.

B2: yeast eIF5A^C39A,K56A (natural protein)
chain: MSDEEHTFETADAGSSATYPMQCSALRKNGFVVIKSRPAKIVDMSTSKTGKHGHAAVHLVAIDIFTGKKLEDLSPSTHNMEVPVVKRNEYQLLDIDDGFLSLMNMDGDTKDDVKAPEGELGDSLQTAFDEGKDLMVTIISAMGEEAAISFKEAARTD
modifications: hypusine-containing (position not given)
Regarding B2, the Ki in the presence of saturating eEF2 in experiment [8] is 454 nM. The Ki in experiment [5] is 189 nM.

B3: yeast eIF5A^C39A,Q22H,L93F (natural protein)
chain: MSDEEHTFETADAGSSATYPMHCSALRKNGFVVIKSRPAKIVDMSTSKTGKHGHAKVHLVAIDIFTGKKLEDLSPSTHNMEVPVVKRNEYQLFDIDDGFLSLMNMDGDTKDDVKAPEGELGDSLQTAFDEGKDLMVTIISAMGEEAAISFKEAARTD
modifications: hypusine-containing (position not given)
As to B3, the Ki in the presence of saturating eEF2 in experiment [8] turned out to be 539 nM. Moreover, the Ki in experiment [5] came out at 569 nM.

As a reminder, the Kd is the concentration at which binding is half-saturated. Read a high Kd as weaker binding.
